Here are results for one molecule from publication PMC9795466.

The target in the data set is thrombin (human, UniProt P00734;P00734 328-363;364-622). As to the kind of experiment: organic electrochemical transistor.

The Kd is the constant that tells how readily two partners part at equilibrium. For TTTTTAGTCCGTGGTAGGGCAGGTTGGGGTGACT (ssDNA, 5' DBCO-TEG) [DBCO-HD22 thrombin aptamer], binding was put at a Kd of 103 ± 44 nM.
